Results from article doi:10.1101/2025.08.03.668247, “The structure of Egalitarian in complex with the K10 mRNA localization signal reveals a modular binding surface required for function”.
Positions count from the first letter of the chain named.

Tests used:
Assay in all cases: fluorescence anisotropy; FA: 20 mM HEPES-NaOH pH 7.5, 100 mM NaCl, 10% glycerol, 20 C, 10 nM FAM-RNA; competition: 150 nM Egl512-819 + 10 nM FAM-K10 TLS, same buffer
Settings in all cases: protein: recombinant; tags: N-terminal GST; label: 5'-6-FAM; hairpin with two bulges
K751E = molecular target: T1, K751E (Drosophila melanogaster, UniProt Q9W1K4 512-819, K751E)
T1 sequence: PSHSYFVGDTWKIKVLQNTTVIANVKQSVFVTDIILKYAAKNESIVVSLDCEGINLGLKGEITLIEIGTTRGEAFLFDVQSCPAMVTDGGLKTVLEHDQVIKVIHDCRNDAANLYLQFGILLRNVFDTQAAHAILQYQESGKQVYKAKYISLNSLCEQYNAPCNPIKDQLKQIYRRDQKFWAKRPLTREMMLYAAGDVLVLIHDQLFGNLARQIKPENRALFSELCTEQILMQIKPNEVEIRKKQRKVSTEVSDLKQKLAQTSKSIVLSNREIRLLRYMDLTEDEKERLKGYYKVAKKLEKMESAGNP

K755A = molecular target: T2, K755A (Drosophila melanogaster, UniProt Q9W1K4 512-819, K755A)
T2 sequence: T1 sequence with E240K, K244A

R782A = molecular target: T3, R782A (Drosophila melanogaster, UniProt Q9W1K4 512-819, R782A)
T3 sequence: T1 sequence with E240K, R271A

R788A = molecular target: T4, R788A (Drosophila melanogaster, UniProt Q9W1K4 512-819, R788A)
T4 sequence: T1 sequence with E240K, R277A

K659E = molecular target: T5, K659E (Drosophila melanogaster, UniProt Q9W1K4 512-819, K659E)
T5 sequence: T1 sequence with K148E, E240K

R753E = molecular target: T6, R753E (Drosophila melanogaster, UniProt Q9W1K4 512-819, R753E)
T6 sequence: T1 sequence with E240K, R242E

CUUGAUUGUAUUUUUAAAUUAAUUCUUAAAAACUACAAAUUAAG (structured_RNA) [K10 TLS (FAM)]
Kd (K751E): 139 ± 28 nM
Kd (K755A): 131 ± 5 nM
Kd (R782A): 284 ± 13 nM
Kd (R788A): 207 ± 43 nM
Kd (K659E): 418 ± 40 nM
Kd (R753E): 185 ± 9 nM
